Laboratory results as given in paper PMC8571082 (2021).

Legend:
[1] = target: T1, factor inhibiting HIF-1 (FIH-1), full-length (human, UniProt Q9NWT6 1-349); assay: ITC; -αKG, +EDTA
[2] = target: T1, factor inhibiting HIF-1 (FIH-1), …; assay: ITC; -αKG, -EDTA
[3] = target: T1, factor inhibiting HIF-1 (FIH-1), …; assay: ITC; +αKG, -EDTA
[4] = target: T1, factor inhibiting HIF-1 (FIH-1), …; assay: ITC; +αKG, +EDTA

T1 sequence (Q9NWT6 whole entry): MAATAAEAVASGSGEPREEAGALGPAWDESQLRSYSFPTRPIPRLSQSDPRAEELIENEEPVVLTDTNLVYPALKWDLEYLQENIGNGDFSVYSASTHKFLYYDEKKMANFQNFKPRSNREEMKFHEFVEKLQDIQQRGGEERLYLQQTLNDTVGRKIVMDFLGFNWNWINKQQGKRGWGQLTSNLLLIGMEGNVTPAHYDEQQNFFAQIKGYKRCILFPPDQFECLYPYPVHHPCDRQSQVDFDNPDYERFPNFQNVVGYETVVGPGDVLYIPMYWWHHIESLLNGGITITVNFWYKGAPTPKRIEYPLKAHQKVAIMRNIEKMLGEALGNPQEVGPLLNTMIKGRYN

Kd [1]: 8100 nM
Kd [2]: 3400 nM
Kd [3]: 1000 nM
Kd [4]: 2200 nM
B1: Mint3NT, N-terminal fragment (1–214) of Mint3 (domain or fragment)
chain: MDFPTISRSPSGPPAMDLEGPRDILVPSEDLTPDSQWDPMPGGPGSLSRMELDESSLQELVQQFEALPGDLVGPSPGGAPCPLHIATGHGLASQEIADAHGLLSAEAGRDDLLGLLHCEECPPSQTGPEEPLEPAPRLLQPPEDPDEDSDSPEWVEGASAEQEGSRSSSSSPEPWLETVPLVTPEEPPAGAQSPETLASYPAPQEVPGPCDHED
